According to patent publication EP4663202A1 (Innovent Biologics (Suzhou) Co., Ltd., dated 2025):

What was measured:
human VEGFC [1] = target: T1, human VEGFC (human, UniProt P49767 103-227, limits assumed); experiment: cell-based or functional assay
T1 sequence (looked up): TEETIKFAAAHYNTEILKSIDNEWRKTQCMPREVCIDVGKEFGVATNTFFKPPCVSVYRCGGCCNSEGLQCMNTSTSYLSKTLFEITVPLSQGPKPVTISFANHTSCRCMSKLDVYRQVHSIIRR

human VEGFC [2] = target: T1, human VEGFC; experiment: biolayer interferometry (ForteBio), monovalent antigen-antibody binding, 30 C

IC50 of inhibition of VEGFC-induced activation of the KDR signaling pathway (NFAT-RE-luc2P/KDR HEK293 reporter cells) (human VEGFC [1]): ~4.46 nM | Kd (human VEGFC [2]): 5.7 nM | koff (human VEGFC [2]): 0.00036 s⁻¹ | kon (human VEGFC [2]): 63100 M⁻¹ s⁻¹
B1: anti-VEGFC antibody am63G12.1-5G8-18B9 (VHH)
VHH: EVQLVESGGGLVQPGGSLRLSCAASGSSFSPYAMGWYRQAPGKQRELVSATSSGGFTLYADSVKGRFTISRDNSKNTVYLQMNSLRAEDTAVYYCYTYYREYDPEMYWGQGTQVTVSS
notes: also called anti-VEGFC humanized VHH antibody
IC50 of inhibition of hVEGFC-induced BaF3-FLT4 survival and proliferation (CCK-8) (human VEGFC [1]): 0.792 nM
